Test [1] addresses endogenous FAK of NIH 3T3 cells (mouse) (UniProt P34152). The test can be described thus: cell-based or functional assay.
In test [2] the target is endogenous FIP200 of NIH 3T3 cells (mouse) (UniProt Q9ESK9). Briefly: cell-based or functional assay.
endogenous FIP200 of NIH 3T3 cells (mouse), sequence (Q9ESK9 whole entry): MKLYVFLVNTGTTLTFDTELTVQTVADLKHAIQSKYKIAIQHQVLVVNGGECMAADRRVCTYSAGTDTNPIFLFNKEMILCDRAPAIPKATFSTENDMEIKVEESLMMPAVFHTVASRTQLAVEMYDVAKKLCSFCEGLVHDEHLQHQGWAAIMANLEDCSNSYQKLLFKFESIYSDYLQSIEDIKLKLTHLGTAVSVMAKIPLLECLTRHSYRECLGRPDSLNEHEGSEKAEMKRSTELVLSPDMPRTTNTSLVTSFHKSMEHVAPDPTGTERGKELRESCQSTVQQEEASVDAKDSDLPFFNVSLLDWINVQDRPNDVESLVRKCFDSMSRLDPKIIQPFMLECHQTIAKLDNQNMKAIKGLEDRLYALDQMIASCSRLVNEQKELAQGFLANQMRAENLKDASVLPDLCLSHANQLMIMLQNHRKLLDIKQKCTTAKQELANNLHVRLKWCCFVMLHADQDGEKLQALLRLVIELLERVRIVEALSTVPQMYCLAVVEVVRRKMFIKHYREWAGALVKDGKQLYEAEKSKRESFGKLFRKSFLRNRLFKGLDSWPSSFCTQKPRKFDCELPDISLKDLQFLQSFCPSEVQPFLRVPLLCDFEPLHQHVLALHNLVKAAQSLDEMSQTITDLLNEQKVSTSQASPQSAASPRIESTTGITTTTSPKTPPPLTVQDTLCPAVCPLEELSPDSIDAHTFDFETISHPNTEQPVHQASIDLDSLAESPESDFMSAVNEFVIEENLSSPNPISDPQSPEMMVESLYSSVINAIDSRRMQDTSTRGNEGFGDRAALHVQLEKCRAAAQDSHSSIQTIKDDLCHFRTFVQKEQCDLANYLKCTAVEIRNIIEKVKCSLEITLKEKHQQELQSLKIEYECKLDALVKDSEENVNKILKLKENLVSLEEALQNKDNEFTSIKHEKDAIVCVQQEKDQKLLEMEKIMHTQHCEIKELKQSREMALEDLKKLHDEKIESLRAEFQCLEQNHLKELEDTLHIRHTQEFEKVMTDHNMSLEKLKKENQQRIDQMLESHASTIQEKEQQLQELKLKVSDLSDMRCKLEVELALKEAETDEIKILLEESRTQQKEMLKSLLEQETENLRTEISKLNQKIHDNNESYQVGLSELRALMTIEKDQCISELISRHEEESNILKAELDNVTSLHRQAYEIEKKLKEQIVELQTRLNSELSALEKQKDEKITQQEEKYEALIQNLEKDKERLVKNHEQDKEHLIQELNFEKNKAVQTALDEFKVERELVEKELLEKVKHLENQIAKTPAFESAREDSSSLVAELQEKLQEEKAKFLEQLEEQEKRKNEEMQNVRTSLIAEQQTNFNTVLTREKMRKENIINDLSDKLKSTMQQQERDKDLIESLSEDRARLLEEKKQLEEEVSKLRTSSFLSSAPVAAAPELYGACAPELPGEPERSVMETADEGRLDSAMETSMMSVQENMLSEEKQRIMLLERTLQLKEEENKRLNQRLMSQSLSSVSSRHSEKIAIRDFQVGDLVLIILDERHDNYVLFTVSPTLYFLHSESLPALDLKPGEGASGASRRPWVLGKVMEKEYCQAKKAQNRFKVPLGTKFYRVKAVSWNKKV

endogenous FAK of NIH 3T3 cells (mouse), sequence (P34152 2-1052 limits assumed): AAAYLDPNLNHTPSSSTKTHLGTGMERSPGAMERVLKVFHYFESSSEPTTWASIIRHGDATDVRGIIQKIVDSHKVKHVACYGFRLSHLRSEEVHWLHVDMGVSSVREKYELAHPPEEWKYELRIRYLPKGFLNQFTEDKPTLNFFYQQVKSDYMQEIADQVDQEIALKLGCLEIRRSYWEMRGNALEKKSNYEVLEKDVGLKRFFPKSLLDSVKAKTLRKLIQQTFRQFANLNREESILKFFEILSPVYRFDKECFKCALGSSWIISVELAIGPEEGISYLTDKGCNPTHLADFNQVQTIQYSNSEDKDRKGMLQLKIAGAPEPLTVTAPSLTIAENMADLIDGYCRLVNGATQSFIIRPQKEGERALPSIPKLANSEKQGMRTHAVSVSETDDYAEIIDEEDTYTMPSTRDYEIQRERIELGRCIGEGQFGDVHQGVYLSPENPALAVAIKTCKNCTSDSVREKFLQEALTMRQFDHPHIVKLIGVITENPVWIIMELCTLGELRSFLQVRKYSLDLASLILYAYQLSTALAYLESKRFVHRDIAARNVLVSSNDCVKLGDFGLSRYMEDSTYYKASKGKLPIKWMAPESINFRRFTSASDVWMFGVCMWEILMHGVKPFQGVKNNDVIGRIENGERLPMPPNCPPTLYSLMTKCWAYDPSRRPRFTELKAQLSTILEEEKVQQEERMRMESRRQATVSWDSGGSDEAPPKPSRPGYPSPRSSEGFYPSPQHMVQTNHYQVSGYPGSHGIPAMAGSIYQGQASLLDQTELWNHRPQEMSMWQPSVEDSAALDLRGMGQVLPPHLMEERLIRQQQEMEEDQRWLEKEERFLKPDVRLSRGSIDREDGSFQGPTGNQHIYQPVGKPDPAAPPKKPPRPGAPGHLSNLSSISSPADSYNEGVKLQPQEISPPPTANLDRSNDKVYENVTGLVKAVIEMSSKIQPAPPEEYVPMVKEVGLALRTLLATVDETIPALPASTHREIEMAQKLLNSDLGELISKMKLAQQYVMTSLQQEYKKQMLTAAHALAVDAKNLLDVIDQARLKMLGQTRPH

In test [1], “Flag-tagged NT-FIP (NH2-terminal FIP200, residues 1-638) (from UniProt Q8TDY2 1-638)” showed an inhibition of cell spreading on FN (NIH3T3, β-gal cotransfection) of 50%.
“Flag-tagged full-length FIP200 (from UniProt Q8TDY2 1-1594)”: in test [1], the inhibition of cell spreading on FN (NIH3T3, β-gal cotransfection) was 50%.
For “HA-tagged KD^KR (FAK kinase domain, residues 403-672, with the kinase-defective mutation K454 to R)”, the cells entering S-phase on PLL (BrdU incorporation, NIH3T3) in test [2] came out at 30%.
Substance “HA-tagged full-length FIP200 (pKH3-FIP200, residues 1-1591) (from UniProt Q8TDY2 1-1594)” yielded an inhibition of cell cycle progression (BrdU incorporation, NIH3T3) in test [1] of 90%.
Substance “Flag-tagged MD-FIP (middle domain FIP200, residues 639-1373) (from UniProt Q8TDY2 639-1373)” had an inhibition of cell spreading on FN (NIH3T3, β-gal cotransfection) in test [1] of 50%.
